T1: fully glycosylated CD24 (recombinant, from CHO cells) (N-glycans, sialic acid and O-glycans kept (untreated))
T1 construct: Recombinant CD24 made in CHO cells, untreated; also called fully modified (N-glycan+sialic acid+O-glycan modifications) CD24; CD24 without deglycosylation
T1 chain: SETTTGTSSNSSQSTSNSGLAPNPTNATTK

B1: SNSGLAPN (SEQ ID NO: 48) (peptide)
peptide: SNSGLAPN
notes: C-terminally truncated form of peptide 4; also called truncated peptide 4
B2: SEQ ID NO 43 (peptide)
peptide: SETTTGTSSN
notes: Synthetic overlapping peptide of mature CD24; by order probably peptide 1; also called one of the five overlapping CD24 peptides
B3: SEQ ID NO 47 (peptide)
peptide: APNPTNATTK
notes: Synthetic overlapping peptide of mature CD24; by order probably peptide 5; also called one of the five overlapping CD24 peptides
B4: SEQ ID NO 44 (peptide)
peptide: GTSSNSSQST
notes: Synthetic overlapping peptide of mature CD24; by order probably peptide 2; also called one of the five overlapping CD24 peptides
B5: PP6373 (antibody, human IgG1, kappa, V domains shown)
VH: EVKFEESGGGLVQPGGSIKLSCAASGVTFSEAWMDWVRQSPEKGLEWVAEIRDKPNSYVTYYAESVKGRFTISRDDSKSRVYLQMNNLRTEDTGIYYCTGAMDYWGQGTSVTVSS
VL: DIVMTQTPLSLSVTIGQPASISCKSSQSLLYSNGKTYLNWLQQRPGQSPKRLIYQVSKLDPGIPDRFSGSGSETDFTLKISRVEAEDLGIYYCMQGSSLPWTFGGGTKLEIKR
notes: Biotinylated in tissue and cell staining; also called H4069 + L4071; P3050.ComF1.2H1
B6: peptide 4 (peptide)
peptide: SNSGLAPNPT
notes: Synthetic overlapping peptide of mature CD24
B7: SEQ ID NO 45 (peptide)
peptide: SSQSTSNSGL
notes: Synthetic overlapping peptide of mature CD24; by order probably peptide 3; also called one of the five overlapping CD24 peptides

Assays:
PP6373 [1] = target: B5; experiment: inhibition assay with truncated peptides
PP6373 [2] = target: B5; experiment: peptide inhibition ELISA, PP6373 on SA-N-CD24, peptides titrated
3B6 = target: T2, 3B6; experiment: peptide inhibition ELISA, 3B6 on NO-CD24
T2 construct: Monoclonal antibody; also called anti-CD24 monoclonal antibody 3B6
Procedure: (§1) To determine the antigenic epitope recognized by 3B6 and affinity matured clone PP6373, we synthesized overlapping peptides covering the mature CD24 amino acid sequence (Seq ID No 42), and pre-incubated them with 3B6 antibody prior to adding 3B6 to plates pre-coated with NO-CD24 protein (CD24Fc pretreated sequentially with N-glycosidase, NanA and O-glycosidase).

[3] = target: T1, fully glycosylated CD24 (recombinant, …); experiment: ELISA titration on coated Fc removed CD24, untreated
Procedure: FIG. 8. Quantitative comparison of binding between different CD24 glycoforms and anti-CD24 antibodies: parental PP6229 vs affinity matured PP6373. Fc removed CD24 were coated onto ELISA plate, and were then treated with either buffer (CD24), NanA (SA-) or NanA+N-glycanse (SA-N-) prior adding given doses of […] (left panel) or PP6373 (right panel). The maximum concentration tested was 7812.50 ng/ml with titration factor of 5× to a minimum concentration of 0.02 ng/ml.
Therefore, this clone is chosen for further study. The heavy chain sequence for PP6373 is listed in SEQ ID NO: 6 and the light chain sequence is listed on SEQ ID No.16. Compared with the parental sequence, the heavy chain has three mutations in CDR2, while the light chain has one mutation in CDR3 of the light chain. […] It is also of note that PP6373 gained the ability to bind to CD24 even without deglycosylation at 1/1000 level of that to SA-N-CD24. However, since CHO cells is known to have incomplete glycosylation, it is likely that the binding reflect the higher sensitivity of the antibody to detect minor glycoform in the recombinant CD24 prepared from CHO cells.

PP6373 [4] = target: B5; experiment: peptide inhibition ELISA, peptides titrated over a large dose range
Procedure: as §1

Row | binding result (PP6373 [2]) | binding result (3B6) | Binder | further results
1 | – | – | B1 | binding result (PP6373 [1]): binds
2 | no binding | no binding | B2 | –
3 | no binding | no binding | B3 | –
4 | no binding | no binding | B4 | –
5 | – | – | B5 | binding relative to that to SA-N-CD24 [3]: 0.001 ratio
6 | – | – | B6 | binding result (PP6373 [4]): binds
7 | no binding | no binding | B7 | –
